In article PMC9482650, “Quantitative fragmentomics allow affinity mapping of interactomes” (Nature Communications, 2022):

T1: DVL3, Q92997
T1 sequence (Q92997 244-331, limits assumed, looked up): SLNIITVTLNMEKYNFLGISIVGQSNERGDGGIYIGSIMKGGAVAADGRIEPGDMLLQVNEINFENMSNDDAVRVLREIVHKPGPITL

T2: TIAM2, Q8IVF5
T2 sequence (Q8IVF5 885-986, limits assumed, looked up): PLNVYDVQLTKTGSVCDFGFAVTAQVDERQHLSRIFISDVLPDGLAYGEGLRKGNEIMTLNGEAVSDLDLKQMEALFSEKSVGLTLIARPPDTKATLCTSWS

T3: APBA1_1, Q02410
T3 sequence (Q02410 651-752, limits assumed, looked up): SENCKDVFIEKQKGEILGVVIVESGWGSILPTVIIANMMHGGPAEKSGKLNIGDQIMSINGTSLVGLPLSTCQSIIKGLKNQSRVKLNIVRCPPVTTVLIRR

T4: MPP2, Q14168
T4 sequence (Q14168 180-250, limits assumed, looked up): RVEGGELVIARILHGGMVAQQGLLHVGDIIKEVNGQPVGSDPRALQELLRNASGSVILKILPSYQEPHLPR

T5: MPDZ_10, O75970
T5 sequence (O75970 1624-1722, limits assumed, looked up): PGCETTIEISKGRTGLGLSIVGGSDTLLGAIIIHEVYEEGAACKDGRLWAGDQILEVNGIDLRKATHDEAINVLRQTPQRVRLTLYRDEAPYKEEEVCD

T6: LIN7B, Q9HAP6
T6 sequence (Q9HAP6 88-185, limits assumed, looked up): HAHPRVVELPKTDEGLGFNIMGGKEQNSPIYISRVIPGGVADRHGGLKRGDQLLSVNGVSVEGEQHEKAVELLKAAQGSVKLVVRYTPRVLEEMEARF

T7: PDZD2_2, O15018
T7 sequence (O15018 329-429, limits assumed, looked up): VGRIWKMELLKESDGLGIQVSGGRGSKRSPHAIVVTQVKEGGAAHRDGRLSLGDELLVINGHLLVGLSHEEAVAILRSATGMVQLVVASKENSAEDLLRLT

T8: GRIP1_2, Q9Y3R0
T8 sequence (Q9Y3R0 145-248, limits assumed, looked up): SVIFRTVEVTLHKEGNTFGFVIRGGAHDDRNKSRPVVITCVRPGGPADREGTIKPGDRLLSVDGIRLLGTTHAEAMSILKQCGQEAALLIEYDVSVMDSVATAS

T9: MPP7, Q5T2T1
T9 sequence (Q5T2T1 134-230, limits assumed, looked up): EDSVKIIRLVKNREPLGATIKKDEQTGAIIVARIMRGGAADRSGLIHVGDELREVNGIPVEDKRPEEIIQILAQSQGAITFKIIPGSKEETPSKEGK

T10: DLG3_1, Q92796
T10 sequence (Q92796 125-227, limits assumed, looked up): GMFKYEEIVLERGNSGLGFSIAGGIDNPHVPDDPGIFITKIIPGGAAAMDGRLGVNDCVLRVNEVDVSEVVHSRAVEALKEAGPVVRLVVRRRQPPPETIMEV

T11: APBA2_2, Q99767
T11 sequence (Q99767 654-744, limits assumed, looked up): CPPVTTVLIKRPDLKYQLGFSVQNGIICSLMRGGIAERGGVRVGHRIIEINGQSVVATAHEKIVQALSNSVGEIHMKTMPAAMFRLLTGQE

T12: GRIP1_3, Q9Y3R0
T12 sequence (Q9Y3R0 247-346, limits assumed, looked up): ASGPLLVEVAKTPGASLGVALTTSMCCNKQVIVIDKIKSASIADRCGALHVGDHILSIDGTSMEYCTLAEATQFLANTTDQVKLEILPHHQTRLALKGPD

T13: CARD11, Q9BXL7
T13 sequence (Q9BXL7 662-765, limits assumed, looked up): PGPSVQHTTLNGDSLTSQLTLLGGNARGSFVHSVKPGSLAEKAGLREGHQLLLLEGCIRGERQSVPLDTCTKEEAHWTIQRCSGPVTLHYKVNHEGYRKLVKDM

B1: KIR3DL3, Q8N743 (peptide)
chain: PKTPPTDTSV
B2: VANGL1, Q8TAA9 (peptide)
chain: VLRLQSETSV
B3: SLC1A5, Q15758 (peptide)
chain: TVASEKESVM
B4: KCNT2, Q6UVM3 (peptide)
chain: GQDSREETQL

Assays:
Test in all cases: holdup assay
Set-up in all cases: key: below the threshold = too weak to quantify, mostly under pKd 3.1 to 4
Conditions in all cases: plain residues with an end cap or a label only (N-terminal biotin on a linker: ttds)
Inadl_9, Q8NI35 = target: Inadl_9, Q8NI35
DVL3, Q92997 = target: T1, DVL3, Q92997
SCRIB_2, Q14160 = target: SCRIB_2, Q14160
TIAM2, Q8IVF5 = target: T2, TIAM2, Q8IVF5
APBA1_1, Q02410 = target: T3, APBA1_1, Q02410
MPP2, Q14168 = target: T4, MPP2, Q14168
MPDZ_10, O75970 = target: T5, MPDZ_10, O75970
FRMPD2_2, Q68DX3 = target: FRMPD2_2, Q68DX3
LIN7B, Q9HAP6 = target: T6, LIN7B, Q9HAP6
PDZD2_2, O15018 = target: T7, PDZD2_2, O15018
Inadl_3, Q8NI35 = target: Inadl_3, Q8NI35
CASK, O14936 = target: CASK, O14936
NOS1, P29475 = target: NOS1, P29475
FRMPD4, Q14CM0 = target: FRMPD4, Q14CM0
PICK1, Q9NRD5 = target: PICK1, Q9NRD5
GRIP1_2, Q9Y3R0 = target: T8, GRIP1_2, Q9Y3R0
MPP7, Q5T2T1 = target: T9, MPP7, Q5T2T1
DLG3_1, Q92796 = target: T10, DLG3_1, Q92796
APBA2_2, Q99767 = target: T11, APBA2_2, Q99767
FRMPD2_1, Q68DX3 = target: FRMPD2_1, Q68DX3
SCRIB_3, Q14160 = target: SCRIB_3, Q14160
DLG1_1, Q12959 = target: DLG1_1, Q12959
PARD3_3, Q8TEW0 = target: PARD3_3, Q8TEW0
GRIP1_3, Q9Y3R0 = target: T12, GRIP1_3, Q9Y3R0
CARD11, Q9BXL7 = target: T13, CARD11, Q9BXL7

SCRIB_2, Q14160, sequence (Q14160 857-960): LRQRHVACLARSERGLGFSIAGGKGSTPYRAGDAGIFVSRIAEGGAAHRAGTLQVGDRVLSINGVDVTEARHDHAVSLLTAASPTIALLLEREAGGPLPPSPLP
FRMPD2_2, Q68DX3, sequence (Q68DX3 944-1038): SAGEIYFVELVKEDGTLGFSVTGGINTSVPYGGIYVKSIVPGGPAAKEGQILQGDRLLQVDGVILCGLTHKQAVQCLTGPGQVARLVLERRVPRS
Inadl_3, Q8NI35, sequence (Q8NI35 359-469): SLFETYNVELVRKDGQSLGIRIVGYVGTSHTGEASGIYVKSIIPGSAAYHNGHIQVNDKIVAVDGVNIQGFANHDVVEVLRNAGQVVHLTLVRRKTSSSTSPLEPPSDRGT
Inadl_9, Q8NI35, sequence (Q8NI35 1530-1615): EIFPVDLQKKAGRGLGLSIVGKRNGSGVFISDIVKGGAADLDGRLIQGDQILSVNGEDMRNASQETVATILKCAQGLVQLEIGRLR
FRMPD2_1, Q68DX3, sequence (Q68DX3 770-861): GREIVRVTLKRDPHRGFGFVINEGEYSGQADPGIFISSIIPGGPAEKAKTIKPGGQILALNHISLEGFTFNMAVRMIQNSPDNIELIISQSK
PICK1, Q9NRD5, sequence (Q9NRD5 17-115): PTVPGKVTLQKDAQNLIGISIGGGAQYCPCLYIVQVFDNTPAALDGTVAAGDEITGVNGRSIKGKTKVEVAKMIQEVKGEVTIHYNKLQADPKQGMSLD
NOS1, P29475, sequence (P29475 9-101): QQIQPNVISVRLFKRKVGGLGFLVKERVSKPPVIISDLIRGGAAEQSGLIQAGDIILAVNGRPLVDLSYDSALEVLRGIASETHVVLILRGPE
CASK, O14936, sequence (O14936 487-570): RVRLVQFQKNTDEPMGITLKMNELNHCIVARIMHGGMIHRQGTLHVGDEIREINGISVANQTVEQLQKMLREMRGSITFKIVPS
PARD3_3, Q8TEW0, sequence (Q8TEW0 582-685): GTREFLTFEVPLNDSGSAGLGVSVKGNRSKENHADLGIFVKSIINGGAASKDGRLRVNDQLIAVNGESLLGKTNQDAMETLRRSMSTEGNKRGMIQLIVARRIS
SCRIB_3, Q14160, sequence (Q14160 999-1103): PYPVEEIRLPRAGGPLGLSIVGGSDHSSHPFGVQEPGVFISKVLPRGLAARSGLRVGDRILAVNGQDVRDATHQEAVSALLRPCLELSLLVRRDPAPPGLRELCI
FRMPD4, Q14CM0, sequence (Q14CM0 67-160): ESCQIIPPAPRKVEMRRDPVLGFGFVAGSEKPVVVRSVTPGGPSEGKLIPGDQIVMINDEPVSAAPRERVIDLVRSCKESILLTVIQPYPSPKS

Row | Binder | pKd (Inadl_9, Q8NI35) | pKd (DVL3, Q92997) | pKd (SCRIB_2, Q14160) | pKd (TIAM2, Q8IVF5) | pKd (APBA1_1, Q02410) | pKd (MPP2, Q14168) | pKd (MPDZ_10, O75970) | pKd (FRMPD2_2, Q68DX3) | pKd (LIN7B, Q9HAP6) | pKd (PDZD2_2, O15018) | pKd (Inadl_3, Q8NI35) | pKd (CASK, O14936) | pKd (NOS1, P29475) | pKd (FRMPD4, Q14CM0) | pKd (PICK1, Q9NRD5) | pKd (GRIP1_2, Q9Y3R0) | pKd (MPP7, Q5T2T1) | pKd (DLG3_1, Q92796) | pKd (APBA2_2, Q99767) | pKd (FRMPD2_1, Q68DX3) | other results
1 | B1 | below the threshold | below the threshold | 4.08 | below the threshold | below the threshold | below the threshold | below the threshold | below the threshold | below the threshold | 4 | below the threshold | below the threshold | below the threshold | 3.78 | below the threshold | below the threshold | below the threshold | 3.69 | below the threshold | below the threshold | pKd (SCRIB_3, Q14160): below the threshold; pKd (DLG1_1, Q12959): 4.02; pKd (PARD3_3, Q8TEW0): below the threshold; pKd (GRIP1_3, Q9Y3R0): below the threshold; pKd (CARD11, Q9BXL7): below the threshold
2 | B2 | below the threshold | below the threshold | 4.72 | below the threshold | below the threshold | below the threshold | below the threshold | 3.72 | 3.67 | 4.12 | below the threshold | below the threshold | 3.75 | below the threshold | below the threshold | below the threshold | below the threshold | 3.96 | below the threshold | below the threshold | pKd (SCRIB_3, Q14160): 4.54; pKd (DLG1_1, Q12959): 4.45; pKd (PARD3_3, Q8TEW0): below the threshold; pKd (GRIP1_3, Q9Y3R0): below the threshold; pKd (CARD11, Q9BXL7): below the threshold
3 | B3 | below the threshold | below the threshold | below the threshold | below the threshold | below the threshold | below the threshold | below the threshold | below the threshold | below the threshold | below the threshold | below the threshold | below the threshold | below the threshold | below the threshold | below the threshold | below the threshold | below the threshold | below the threshold | below the threshold | below the threshold | pKd (SCRIB_3, Q14160): 3.97; pKd (DLG1_1, Q12959): below the threshold; pKd (PARD3_3, Q8TEW0): below the threshold; pKd (GRIP1_3, Q9Y3R0): below the threshold; pKd (CARD11, Q9BXL7): below the threshold
4 | B4 | below the threshold | below the threshold | 3.83 | below the threshold | below the threshold | below the threshold | below the threshold | below the threshold | 3.66 | below the threshold | below the threshold | below the threshold | 4.05 | 4.48 | below the threshold | below the threshold | below the threshold | below the threshold | below the threshold | below the threshold | pKd (SCRIB_3, Q14160): 5.07; pKd (DLG1_1, Q12959): below the threshold; pKd (PARD3_3, Q8TEW0): 4.04; pKd (GRIP1_3, Q9Y3R0): below the threshold; pKd (CARD11, Q9BXL7): below the threshold
